Experiment in all cases: cell-based or functional assay
Experiment [1] addresses hNav1.7 (human) (UniProt Q15858).
For experiment [2], the target named is hNav1.4 (human) (UniProt P35499).
Experiment [3] addresses hNav1.3 (human) (UniProt Q9NY46).
Experiment [4] addresses hNav1.1 (human) (UniProt P35498).
The target in experiment [5] is hNav1.5 (human) (UniProt Q14524).
The target in experiment [6] is hNav1.6 (human) (UniProt Q9UQD0).
Experiment [7] addresses hNav1.2 (human) (UniProt Q99250).

In experiment [1], µ-theraphotoxin-Hsp1a (peptide) registered an IC50, automated whole-cell patch clamp of 0.013 µM.

With synthetic Hsp1a (peptide), the fold selectivity of hNav1.7 over this channel was greater than 100 fold in experiment [2]; greater than 100 fold in experiment [3]; 40 fold in experiment [4]; greater than 100 fold in experiment [5]; greater than 100 fold in experiment [6]; 28 fold in experiment [7]. The pIC50, whole-cell patch clamp (QPatch 16X) is less than 6 M in experiment [2]; less than 6 M in experiment [3]; 6.39 M in experiment [4]; less than 6 M in experiment [5]; less than 6 M in experiment [6]; 6.52 M in experiment [7]. This substance also came in with a pIC50, whole-cell patch clamp (QPatch 16X) in experiment [1] of 7.98 M. The same substance displayed a recovery of currents after washout in experiment [1] of 10 min.

The values above are taken from patent US20220089663A1, “PROTEINS AND FLUOROPHORE-CONTAINING COMPOUNDS SELECTIVE FOR NaV1.7” (MEMORIAL SLOAN KETTERING CANCER CENTER, priority 2019, published 2022).
